From the nanobody polyreactivity screen of Harvey et al. (2022)

Experiment: yeast display, Sf9 membrane polyspecificity reagent, FACS + sequencing; frameworks hold sequencing errors
Procedure, shortened: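 Synthetic nanobody libraries on Saccharomyces cerevisiae BJ5465 were galactose-induced for 36–48 hours, stained 1 hour at 4 °C with 10% biotinylated, detergent-solubilized Sf9 membrane reagent and enriched on streptavidin microbeads. FACS then separated cells into low and high (top ~1%) gates by anti-HA (expression) and streptavidin (reagent binding) fluorescence. Genes were colony-PCR amplified, MiSeq 2 × 250 sequenced and CDR-length filtered. A clone's polyreactivity label is that of its gate of origin.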

Row | Sequence | polyreactivity (PSR sort gate)
1 | QVQLVESGGGLVQAGGSLLLSCAASGFTFQYYAMGWYRPEPGKERELVASISWSGGSTYYADSVKGRFTISRDNAKNTVYLQMHSLKPEDTAVYYCAATVTYFFSSARFSAYGYWGQGTQVTVSS | high polyreactivity
2 | QVQLVESGGGLVQAGGSLRLSCAASGIIFYPYAMGWYRQAPGKERELVAAISIGGGSTYYADSVKGRFTISRDNAKNTVYLQMNSLKPEDTAVYYCAAGTPYGILGYYYWGQGTQVTVSS | low polyreactivity
3 | QVQLQESGGGLVQAVASLRLSCEASVSISSLDYMGWYRQASGKERELVAAIDNGSTTYYADSVKGRLTISRDNAKYTVYLQMNSLKPEDTAVYFCAAVRGRGGTHAYWGQGTQVTVSG | low polyreactivity
4 | QVQLVESGGGLVQAGGSLRLSCAASGFIFDGYAMGWYRQAPGKERELVADISSVGSTYYADSVKGRFTISRDNAKNTVYLQMNSLKPEDTAVYYCAAVRFYTYNYWGQGTQVSVSS | low polyreactivity
5 | QVQLQESGGGLVQAGDSQRLSCAASGNIFRFTDRGWYRQAPGKERELVAAINAGSTTYYADSVKGRFTISRDNAKNTVYLQMNSLKPEDTAVYYCAVYYLGSGTFGYWGQGAQVTVSS | high polyreactivity
6 | QVQLVESGGGLVQAGGSLRLSCAASGRTFRGYAMGWYRPAPGKERELVAVISRGGRTNYADSVKGRFTISRDNAKNTVYLQMNSLKPEDTAVSYCAAEVAFIYSLRYDYWGQGTQVTVSS | high polyreactivity
7 | QVHLQESGGGLVQAGGSLRLSCEASGSISRYYDMVWYRQAPGKELEFVAGISGGAITYYADSVKGRFTISRDNAKNTVYLQMNSLKPEDTAVYYCAADTGVYQYHSYWGQGTQVTVSS | low polyreactivity
8 | QVQLVESGGGLVQAGGSLRLSCAASGRTFVYYAMGWYRQAPGKERELVAAITSGGNTYYADSVKGRFTISRDNAKNTDYLQMNSLKPEDTAVYYCAAKRRRSFDYWGQGTQVTVSS | high polyreactivity
9 | QVQLVESGGGLVQAGGSLRLSCAASGSIFPTYAMGCYRQAPGKERELVAAIRSGSNTYYADSVKGRFTISRDNAKNTVYLQMNSLKPEDTAVYYCNVGPQRKYPGRRTVPFGYWGQGTQVTVSS | low polyreactivity
10 | QVQLVESGGGLVQAGGSLRLTCAASGFTFNRYTMGWYRQAPGKERELVAAITRSGGSTYYADSVKGRFTISRDNAKNTVDLQMNSLKPEDTAVYYCAAPSYLVAGYGYWGQGTQVTLSS | high polyreactivity
11 | QVQLVESGGGLVQAGGSLRLSCAASGRIFDRNAMGWYRQAPGKERELVARIDPGDDTNYADSVKGRFTISRDNAKNTVYLQMNSLKPEDTAVYYCAADGVVVVAADMYYWGQGTQVTVSS | low polyreactivity
12 | QVQLVESGGGLVQAGGSLRLSCAASGSTFGPYAMGWYRQAPGKERELVAAIRSDGGTYYADSVKGRFTISRDNAKNTVYLQMNSLKPEDTAVYYCATRPINSYYDHDSWGQGTQVTVSS | high polyreactivity
13 | QVQLVESGGGLVQAGGSLRLSCAASGYIFGSYAMGWYSQAPGKERELVATISYRAGRTYYADSVKGRFTISRDNAKNTVDLQMNSLTPEDTAVYYCAADLVIYLEYDYWGQGTQVTVSS | low polyreactivity
14 | QVQLVESGGGLVQAGGSLRLSCAASGFTFFPNAMGWYRQAPGKERELFAAISRSDDNTFYADSVKGRITISRDNAKNTVYLQMNSLKPEDTAVYYCDKSAVPWRYPRGYDYWGQGTQVTVSS | low polyreactivity
15 | QVQLVESGGGLVQAGGSLRLSCAASGSIFKRNTMGWYRQAPGKERELVAAISASGGRTYYADSVKGRFTISRDNAKNTVYLQMNSLKPEDTAVYYCNARFRIGRSELDYWGQGTQVTVSS | low polyreactivity
16 | QLQLVESGRGLVQAGGSLRLRCAASVSTFGANAMGWYRQAPGKESELVATISSGGRTYYADSVKGRFTISRDNAKNTVYLQMNSLKPEDTAVYYCNAGADYTYVYISVYVLYDEWGQGTQVTVSS | low polyreactivity
17 | QVQLVESGGGVVQAGGSLRLSCAASGSTFRTNAMGWYRQAPGKERELVAAITSTGGSTYYADSVKGRFTISRDNAKNTVYLQMNSLKPEDTAVYYCAAYYVPGYYYWGQGTQVTVSS | high polyreactivity
18 | QVQLVESGGGLVQAGCSLRLSCAASGSIFPANAMGWYRQAPGKEWEFVAAINWSTGTTYNADSVKGRFTISRDNAKNTVYLQMTSLKPEDTAFYHCAAGDWYSGNTTHFYYWGQGTQVTVSS | low polyreactivity
19 | QVQLVESGGGLVQAGGSLRLSCAASGITFAYNAMGWYRQAPGKERELVARITSGGRTYYADSVKGRFTISRDNAKNTVYLQMKSLKPEDTAVYYCNAKEGSRYRKYDYWGPGTQVTVSS | low polyreactivity
20 | QVQLVESGGGLVQAGRSLRLSCAASGLTFRVYPMGWYRQAPGKDRELVAAITGGGGSTYADSVKGRFTISRDNAKNTVYLQMYSLKPEDTAVSYCNKKGYYYKFDYWGQGTQVTVSS | low polyreactivity
21 | QVQLVESGGGLVQAGGSLRLSCAASGRIFHYYAMGWYRQAPGKERELVAAINKSGGRTYYADSVKGRFTISRDNAKNTVYLQMNSLKPEDTAVYYCAADVPGVTTSYAPYDSDYWGQGTQVTVSS | high polyreactivity
22 | QVQLVESGGGLVQAGGSLRLSCAASGYIFGVYAMGWYRQAPGKERELVAAISYGVGSTYYADSVKGRFTISRDNAKNTVYLQMNSLKPEDTAVYYCAADVFFYVYEAYLLYYWGQGTQVTVSS | low polyreactivity

Row | Sequence | polyreactivity (PSR sort gate)
23 | QVQLVESGGGLVQAGGSLRISCAASGIIFAANTMGWYRQAPGKERELVAAITSGGSTKYADSVKGRFTISRDNAKNTVYLQMNSLKPEDTAVYYCAAQYRYQRYSYAMEYWGQGTQVTVSS | high polyreactivity
24 | QVQLVESGGGLVQAGGSLRLSCAASGSTFVQYVMGWYRQAPGKERELVAAISSSGGSTYYADSVKGRFTISRDNAKNTVYLQMNSLKPEDTAVYYCAAYYFVAQARYDYWGQGTQVTVSS | high polyreactivity
25 | QVQLVDSGGGLVQAGGSLRLSCADSGFTFSWNVMGRYRQAPGKEREYVAAISTSYGGRYYADSVKGRFTISRDNAKNTVDLQMNSLKPEDTAVYYCNDDIVGFQWGYDYWGQGTQVTVSA | low polyreactivity
26 | QVQLVESGGGLVQAGGSLRLSCAASGITFARYAMGLYRQAPGKERELVAAISWSGGSTYYADSVKGRFTISRDNAKNTVYLQMNSLKPEDTAVYYCAAGGRVRRNKFDYWGQGTQVTVSS | high polyreactivity
27 | QVQLVESGGGSVQAGGSLRLSCAASGSTIRYYAMGWYRQAPGKERELVARITSRAGRTYYADSVKGRFTISRDNAKNTVYLQMNSLKPEDTAVYYCNTRDFSGYVHALSLYDYWGQGTQVTVSS | high polyreactivity
28 | QVQLVESGGGLVQAGGSLRLSCAASGSIFWPNAMGWYRQAPGKERELVASITRAGSTNYADSVKGRFTISRDNAQNTVYLQMNSLKPEDTAVYYCAAYFWGGYNYWGQGTQVTVSS | low polyreactivity
29 | QVQLVESGGGLVQAGGSLRLSCAASGSTFDYNAMGWYRQAPGKERELVAAITSTGGNTYYADSVKGRFTISRDHAKNTDYLQMNSLKPEDTAVYYCNKDVARYPYGNFDYWGQGTQVTVSS | low polyreactivity
30 | QVQLVESGGGLVQAGGSLRLSCAASGITIFGYAMGWYRQAPRTERELVAAINYSGDSTYYADSVKGRFTISRDNAKNTVYLQMNSLKPEDTAVYYCAADVRPYYSAYRGRYYYWGQGTQVTVSS | high polyreactivity
31 | QVQLVESAAGLVQAGGSLRLSCAASGGIFHGYAMGWYRHAPGKERELVAAISWSTGSTYYADSVKGRFTISRDNAKNTVYLQMNSLKPEDTAVYYCAARYLSGTSRYYYWGQGTQVTVSS | high polyreactivity
32 | QVQLVESGGGLVQAGGSLRLSCAASGSTLGPYAMGWYRQAPGKERELVATINSSGSTNYADSVKGRFTISRDNAKNPVYLQMNSLKPEDTAVYYCATLHYYYWYDYWGQGTQVTVSS | low polyreactivity
33 | QVQLVESGGGLVQAGGRLRLSCAASGITFQPNAMGWYRQAPGKERELVARITRGGGRTYYADSVKGRFTISRDNAKNTVYLLMHSLKPEDTAVYYCAADYSYIYGFDYWGQGTQVTVSS | low polyreactivity
34 | QVQLVESGGGLVQAGGSLRLSCAASGSIFWQNTMGWYRQAPGKERELVAAISWSGGRTYYADSVKGRFTISRDNAKNTVYLQMNSLKPEDTAVYYCAAAFSPGWWSRHTYDYDYWGQGTQVTVSS | high polyreactivity
35 | QVQLVESGGGLVQAGGSLRLSCAASGSTISFYAMGWYRQAPGKERELVAAISFRGGRTYYADSVKGRFTISRDNAKNTVYLQMYSLKPEDTAVYYCAAVWYYGHARYDYWGQGTQVTVSS | high polyreactivity
36 | QVQLVESGGGLVQAGGSLRLSCAASGSTFSSNAMGWYRQAPGKERELVAAINRTGNTYYADSVKGRFTISRDNAKNTVYLQMNSLKPEDTAVYYCNTDLNLYRGGGYWGQGTQVTVSS | low polyreactivity
37 | QVQLVESGGGLVQAGGRLRLSCAASGSTFQRYAMGWYRQAPGKDRELVAAISSTGGSTFYADSVKGRFTISRDTAKNTVYLHMNSLKPEDTAVYYCNKYRATNSARDYWGQGTQVTVSS | high polyreactivity
38 | QVQLVESGGGLVQAGGILRLSCDASGSTFVLYAMGWYRQAPGKERELVAAIRKSGGSTYYADSVKGRFTISRDNAKIYVYLQMNSLKPEDTAVYYCNATNYIYEYHYWGQGTQVTVSS | low polyreactivity
39 | QVQLVESGGGLVQAGGSLRLSCAASGIIIGGNAMGWYRQARGKERELVAAINSDDSTYYADSVKGRFTISRDNAKNTVYLQMNSLKPEDTAVYYCAVTETYYSPYSGYWYEYDHWGQGTQVTVSS | high polyreactivity
40 | QVQLVESGGGLVQAGGSLRLSCADSGFIFATNAMGWYRQAPGKERDFVAAITSGGSTYYADSVKGRFTISRDNAKNTVYLQMNSLKPEDTAVYYCNARTYSRVTRQTYRYRPYDYWGQGTQVSVSS | high polyreactivity
41 | QVQLVESGGGLVQAGGSLRLSCAASGFTFYDYAMGWYRQAPGKERELVAAISSGTSTYYADSVKGRFTISRDNAKNTVYLQMNSLKPEDTAVYYCAAAGNRPWSITPVRKRYGYNYWGQGTQVTVSS | high polyreactivity
42 | QVQLVESGGGLVQAGGSLRLSCAASGRTSLRYSMGWYRQAPGKERELVAAITSSGATTYYADSVKGRFTISRDNAKNTVYLQMNSLKPEDTAVYYCAAVYSAKRGSGGFGYWGQGTQVTVSS | high polyreactivity
43 | QVQLVESGGGLVQAGGSLRLSCAASGSIFHVNAMGWYRQAPGKERELVADISKRGASTYYADSVKGRFTISRDNAKNTVYLQMNSLKPEDTAVYYCAARVVTPRRQWYTYDYWGQGTQVTVSS | high polyreactivity
